We go through 125 sequences from the supplement of paper PMC9112550, “Optimization of the antimicrobial peptide Bac7 by deep mutational scanning” (BMC Biology, 2022).

This series relates to Escherichia coli TOP10. The experiment in a line: shrunken log2 fold change of peptide-encoding DNA abundance (4.5 h post-induction vs induction); higher = less antimicrobial activity (less host growth inhibition). As to conditions: time post-induction: 4.5 h; library: site-saturation at positions 5, 18, 19, 20.
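Further: peptides expressed intracellularly from a pBAD plasmid library in pooled LB shake-flask culture, induced with 0.3% L-arabinose, DNA abundance read by NGS, three biological replicates, DESeq2 with apeglm shrinkage.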

In the case of RRIRERPPRLPRPRPRPHLTPRP, the “shrunken log2 fold change” value came out at 0.0373.

For the sequence RRIRPRPPRLPRPRPRPGFSPRP, the “shrunken log2 fold change” value was -0.0307.

Take RRIRLRPPRLPRPRPRPCMCPRP: the “shrunken log2 fold change” value was -0.967. Consider RRIRWRPPRLPRPRPRPALVPRP, for which the “shrunken log2 fold change” value stood at 0.98.

As for RRIRYRPPRLPRPRPRPLTLPRP, the “shrunken log2 fold change” value is -0.267. With RRIRQRPPRLPRPRPRPLCRPRP, the “shrunken log2 fold change” value is -0.272.

Turning to RRIRYRPPRLPRPRPRPPYMPRP, the “shrunken log2 fold change” value was -0.43. As for RRIRLRPPRLPRPRPRPLPDPRP, the figure is 0.327; as for RRIRMRPPRLPRPRPRPGSWPRP, 0.858. As for RRIRSRPPRLPRPRPRPEDTPRP, the figure is -0.00541; as for RRIRARPPRLPRPRPRPKLTPRP, 0.167; as for RRIRFRPPRLPRPRPRPVLDPRP, -0.474.

Turning to RRIRGRPPRLPRPRPRPGLWPRP, the “shrunken log2 fold change” value was 1.03. As for RRIRYRPPRLPRPRPRPTCKPRP, the figure is -0.178; as for RRIRERPPRLPRPRPRPPMKPRP, -0.418.

Consider RRIRFRPPRLPRPRPRPVSLPRP, for which the “shrunken log2 fold change” value is -0.00718.

In the case of RRIRQRPPRLPRPRPRPPLEPRP, the “shrunken log2 fold change” value worked out at 0.949. As for RRIRLRPPRLPRPRPRPEEYPRP, the figure is 0.0401; as for RRIRQRPPRLPRPRPRPFCPPRP, -0.236; as for RRIRMRPPRLPRPRPRPAGSPRP, 0.2. The figure for RRIRNRPPRLPRPRPRPMWIPRP is -0.148; for RRIRVRPPRLPRPRPRPHYVPRP it is 0.0323; for RRIRIRPPRLPRPRPRPFRFPRP it is -0.392. The figure for RRIRFRPPRLPRPRPRPNSVPRP is -0.0912; for RRIRYRPPRLPRPRPRPVRAPRP it is 0.774. For the sequence RRIRRRPPRLPRPRPRPDGMPRP, the “shrunken log2 fold change” value worked out at 0.0388. The figure for RRIRQRPPRLPRPRPRPIRGPRP is -0.0547; for RRIRARPPRLPRPRPRPKGIPRP it is -0.0515. The figure for RRIRLRPPRLPRPRPRPPNIPRP is -0.346; for RRIRQRPPRLPRPRPRPITLPRP it is -0.418; for RRIRLRPPRLPRPRPRPSTSPRP it is -0.0196. For RRIRDRPPRLPRPRPRPIQFPRP, the “shrunken log2 fold change” value is -0.177. Regarding RRIRQRPPRLPRPRPRPWAWPRP, the “shrunken log2 fold change” value was -0.0707. As for RRIRPRPPRLPRPRPRPSGCPRP, the figure is 0.142; as for RRIRIRPPRLPRPRPRPELSPRP, -0.476; as for RRIRRRPPRLPRPRPRPVPFPRP, 0.0998. As for RRIRRRPPRLPRPRPRPHSPPRP, the figure is 0.252.

Take RRIRKRPPRLPRPRPRPESNPRP: the “shrunken log2 fold change” value was found to be 1.13. As for RRIRDRPPRLPRPRPRPHRHPRP, the figure is -0.00955; as for RRIRFRPPRLPRPRPRPQSNPRP, -0.354; as for RRIRYRPPRLPRPRPRPRTVPRP, -0.0278. The figure for RRIRERPPRLPRPRPRPDAPPRP is 0.0716; for RRIRARPPRLPRPRPRPTFVPRP it is 0.203; for RRIRTRPPRLPRPRPRPAFQPRP it is 0.125. As for RRIRMRPPRLPRPRPRPKIPPRP, the figure is 0.365. RRIRIRPPRLPRPRPRPDHYPRP: the “shrunken log2 fold change” value is -0.38. As for RRIRYRPPRLPRPRPRPYAIPRP, the figure is -0.00088; as for RRIRMRPPRLPRPRPRPPLMPRP, 1.34; as for RRIRSRPPRLPRPRPRPCQIPRP, -0.231. The figure for RRIRARPPRLPRPRPRPAFYPRP is 0.117; for RRIRCRPPRLPRPRPRPRFRPRP it is 0.201; for RRIRCRPPRLPRPRPRPDSFPRP it is 0.211. As for RRIRTRPPRLPRPRPRPRKYPRP, the figure is -0.809. In the case of RRIRTRPPRLPRPRPRPYTEPRP, the “shrunken log2 fold change” value is -0.267. The figure for RRIRERPPRLPRPRPRPFPNPRP is -0.165. The figure for RRIRPRPPRLPRPRPRPAWQPRP is 0.277; for RRIRHRPPRLPRPRPRPKPGPRP it is 0.21; for RRIRARPPRLPRPRPRPKTPPRP it is 0.903.

RRIRVRPPRLPRPRPRPHRTPRP: the “shrunken log2 fold change” value was -0.16. As for RRIRMRPPRLPRPRPRPDRMPRP, the figure is 0.422; as for RRIRNRPPRLPRPRPRPRAWPRP, -0.054; as for RRIRIRPPRLPRPRPRPRYLPRP, 0.0743.

As for RRIRCRPPRLPRPRPRPACVPRP, the “shrunken log2 fold change” value came out at 0.211.

In the case of RRIRLRPPRLPRPRPRPPATPRP, the “shrunken log2 fold change” value was 0.725.

For RRIRLRPPRLPRPRPRPHFWPRP, the “shrunken log2 fold change” value was 0.144. The figure for RRIRHRPPRLPRPRPRPAMYPRP is -0.0134. RRIRTRPPRLPRPRPRPMPTPRP: the “shrunken log2 fold change” value came to 0.0982. The figure for RRIRQRPPRLPRPRPRPDHYPRP is -0.213.

Consider RRIRVRPPRLPRPRPRPAPLPRP, for which the “shrunken log2 fold change” value was 0.255. The figure for RRIRMRPPRLPRPRPRPGKDPRP is 0.0653. As for RRIRLRPPRLPRPRPRPWDYPRP, the figure is 0.0642; as for RRIRKRPPRLPRPRPRPDECPRP, -0.0821; as for RRIRCRPPRLPRPRPRPSQWPRP, -0.337. RRIRVRPPRLPRPRPRPSDPPRP: the “shrunken log2 fold change” value is -0.179. As for RRIRLRPPRLPRPRPRPGAQPRP, the “shrunken log2 fold change” value is 0.0336.

Turning to RRIRLRPPRLPRPRPRPHPNPRP, the “shrunken log2 fold change” value is -0.247. For the sequence RRIRSRPPRLPRPRPRPWCQPRP, the “shrunken log2 fold change” value is -0.119.

RRIRMRPPRLPRPRPRPGEFPRP: the “shrunken log2 fold change” value turned out to be 0.00408. Take RRIRNRPPRLPRPRPRPSWLPRP: the “shrunken log2 fold change” value was -0.361. With RRIRQRPPRLPRPRPRPNQAPRP, the “shrunken log2 fold change” value is -0.0235.

With RRIRNRPPRLPRPRPRPSPDPRP, the “shrunken log2 fold change” value amounted to 0.0143. As for RRIRSRPPRLPRPRPRPHANPRP, the “shrunken log2 fold change” value is -0.168.

Take RRIRGRPPRLPRPRPRPGFWPRP: the “shrunken log2 fold change” value is 0.581. The figure for RRIRRRPPRLPRPRPRPYPYPRP is -0.0951; for RRIRLRPPRLPRPRPRPHQEPRP it is -0.00192. As to RRIRFRPPRLPRPRPRPKHFPRP, the “shrunken log2 fold change” value is -0.0499. The figure for RRIRARPPRLPRPRPRPHKIPRP is -0.0893; for RRIRVRPPRLPRPRPRPVWQPRP it is 0.148; for RRIRLRPPRLPRPRPRPDHQPRP it is -0.118.

Consider RRIRERPPRLPRPRPRPNWGPRP, for which the “shrunken log2 fold change” value is 0.00892. The figure for RRIRCRPPRLPRPRPRPVTHPRP is -0.29; for RRIRDRPPRLPRPRPRPQNKPRP it is -0.475; for RRIRTRPPRLPRPRPRPVKLPRP it is 0.0303.

As to RRIRQRPPRLPRPRPRPQKTPRP, the “shrunken log2 fold change” value was -0.064. The figure for RRIRHRPPRLPRPRPRPIFYPRP is -0.204; for RRIRNRPPRLPRPRPRPVRRPRP it is 0.112; for RRIRGRPPRLPRPRPRPNNKPRP it is 0.0225.

Take RRIRERPPRLPRPRPRPTKGPRP: the “shrunken log2 fold change” value was -0.184. As for RRIRGRPPRLPRPRPRPLHWPRP, the figure is 0.627; as for RRIRPRPPRLPRPRPRPWWDPRP, -0.204.

Regarding RRIRVRPPRLPRPRPRPYPFPRP, the “shrunken log2 fold change” value is -0.863. With RRIRHRPPRLPRPRPRPILDPRP, the “shrunken log2 fold change” value came to 0.0523. The figure for RRIRMRPPRLPRPRPRPLEHPRP is 0.0245; for RRIRYRPPRLPRPRPRPEIWPRP it is 0.212; for RRIRQRPPRLPRPRPRPPAMPRP it is -0.0312. Turning to RRIRERPPRLPRPRPRPFNIPRP, the “shrunken log2 fold change” value was -0.0814. As for RRIRVRPPRLPRPRPRPVGTPRP, the figure is -0.0358; as for RRIRPRPPRLPRPRPRPDTIPRP, -0.247.

Take RRIRCRPPRLPRPRPRPNMMPRP: the “shrunken log2 fold change” value is -0.475. The figure for RRIRQRPPRLPRPRPRPLRNPRP is 0.121. As for RRIRVRPPRLPRPRPRPWMQPRP, the figure is -0.106; as for RRIRSRPPRLPRPRPRPCFPPRP, -0.747; as for RRIRLRPPRLPRPRPRPNVLPRP, -0.304. As for RRIRKRPPRLPRPRPRPFPKPRP, the figure is 0.169; as for RRIRHRPPRLPRPRPRPNGGPRP, -0.147. Consider RRIRHRPPRLPRPRPRPVQLPRP, for which the “shrunken log2 fold change” value is -0.0712.

RRIRFRPPRLPRPRPRPISQPRP: the “shrunken log2 fold change” value was -0.588. As for RRIRCRPPRLPRPRPRPGQFPRP, the figure is -0.564; as for RRIRLRPPRLPRPRPRPSDFPRP, -0.131; as for RRIRKRPPRLPRPRPRPFDEPRP, 0.0269.

RRIRARPPRLPRPRPRPSTDPRP: the “shrunken log2 fold change” value came to 1.08.

In the case of RRIRMRPPRLPRPRPRPSQNPRP, the “shrunken log2 fold change” value turned out to be 0.407.

Regarding RRIRPRPPRLPRPRPRPREDPRP, the “shrunken log2 fold change” value was determined as 0.134. The figure for RRIRPRPPRLPRPRPRPWLEPRP is -0.0732. The figure for RRIRHRPPRLPRPRPRPSWVPRP is -0.0882.
